From patent US20060188956A1, “Relaxin3-gpcr135 complexes and their production and use” (priority 2003, published 2006)
Each block holds one molecule with its values, some of them ahead of it.

Experiments:
GPCR135 [1] = target: T1, GPCR135 (Homo sapiens, UniProt Q9NSD7); assay: Intracellular cAMP accumulation assay in CHO-K1 cells; assay type: cell-based; set-up: primers complementary to the putative translation start and stop sites of the GPCR135 open reading frame; expressed in transfected cells; host or cells: CHO-K1 (transient, pCIneo vector); isolated cell membranes
T1 sequence (Q9NSD7 1-469): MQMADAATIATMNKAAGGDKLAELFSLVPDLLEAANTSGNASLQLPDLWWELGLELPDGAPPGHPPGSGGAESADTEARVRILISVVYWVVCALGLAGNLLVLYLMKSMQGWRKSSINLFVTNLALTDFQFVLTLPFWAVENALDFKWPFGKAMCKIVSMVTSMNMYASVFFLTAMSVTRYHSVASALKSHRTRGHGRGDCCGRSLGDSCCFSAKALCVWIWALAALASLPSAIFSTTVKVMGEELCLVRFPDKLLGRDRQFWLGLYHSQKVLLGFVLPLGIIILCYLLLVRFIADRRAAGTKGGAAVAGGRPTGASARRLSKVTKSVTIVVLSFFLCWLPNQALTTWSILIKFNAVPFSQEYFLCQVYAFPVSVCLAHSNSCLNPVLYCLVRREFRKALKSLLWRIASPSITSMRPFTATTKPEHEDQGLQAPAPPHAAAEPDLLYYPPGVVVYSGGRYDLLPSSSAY
Experimental: CHO-K1 cells stably expressing human GPCR135 (GPCR135) and un-transfected CHO-K1 cells (Control) were used for cAMP accumulation assays. Cells were treated with different stimulants as indicated. cAMP accumulated in the cells was extracted by HCl and the concentration of cAMP was measured by a ELISA kit (NEN) using ^125I-labeled cAMP and Flash plates.
CHO-K1 cells stably expressing human GPCR135 were established by transfection of GPCR135 expressing plasmid into CHO-K1 (ATCC# CCL-61) cells and culturing the transfected cells under selection of G418 (400 mg/L). The receptor expressing cells were seeded in 96-well plates at a cell density of 30,000 cells/well. Twenty-four hours later, cell culture medium was replaced with DMEM-F12 plus 2 mM IBMX (sigma). A different test compound for cAMP stimulation was added to each well. The reactions were incubated at room temperature for 20 min. Twenty micro-liters of 0.5 N HCl was added to each well to stop the reaction and extract the accumulated cAMP. The cAMP concentration was measured using a cAMP ELISA kit (NEN).

GPCR135 [2] = target: T1, GPCR135; assay: Radioligand binding assay in transfected COS-7 cells; settings: COS-7 cells transfected with human GPCR135; competitor 1 μM unlabeled relaxin3
Experimental: (§1) COS7 cells, either untransfected (NC) or transfected with pcDNA3.1 (the vector control), human GPCR135 (hGPCR135), mouse GPCR135 (mGPCR135), rat GPCR135 long form (rGPCR135L), and rat GPCR135 short form (rGPCR135s) respectively, were used for binding assays using ^125I-labeled human relaxin3 either in the present (“Competition”) or absence (“Total Binding”) of 1 µM of unlabeled human relaxin3 as the competitor.
(§2) COS-7 cells in 6-well tissue culture plates were transfected by GPCR135 expressing plasmid using LipofectAmine. Two days after transfection, cells were washed with binding buffer: DMEM plus 50 mM Hepes, pH 7.2 and 1% BSA. ^125I-label human relaxin3 was added to each well in 1 ml of binding buffer at presence or absence 1 μM of unlabeled relaxin as competitor. The binding assays were carried out at room temperature for one hour and the unbound ligand was washed away by ice-cold PBS. The bound ^125I-relaxin3 was counted in a gamma counter.

mouse GPCR135 = target: T2, mouse GPCR135 (Mus musculus, UniProt Q8BGE9); assay: as above; settings: COS-7 cells transfected with mouse GPCR135; competitor 1 μM unlabeled relaxin3
T2 construct: Mouse GPCR135 coding region was PCR amplified from mouse genomic DNA; expressed in transfected cells; host or cells: COS-7 (ATCC CRL-1651), transient
T2 sequence (Q8BGE9 1-472): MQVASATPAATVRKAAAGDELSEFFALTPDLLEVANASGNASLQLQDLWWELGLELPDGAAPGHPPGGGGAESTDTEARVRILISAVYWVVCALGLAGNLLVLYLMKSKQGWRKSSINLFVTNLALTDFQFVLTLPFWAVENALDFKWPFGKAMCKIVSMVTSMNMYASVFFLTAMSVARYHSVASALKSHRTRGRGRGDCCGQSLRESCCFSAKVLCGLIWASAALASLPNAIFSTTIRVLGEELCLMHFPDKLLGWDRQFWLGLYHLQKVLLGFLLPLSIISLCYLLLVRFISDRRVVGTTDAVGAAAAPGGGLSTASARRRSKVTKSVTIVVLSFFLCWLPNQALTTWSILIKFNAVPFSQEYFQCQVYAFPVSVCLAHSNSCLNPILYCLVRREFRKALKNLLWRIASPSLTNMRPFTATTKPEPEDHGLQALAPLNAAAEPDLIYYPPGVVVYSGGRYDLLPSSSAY
Experimental: as §1, §2

rat GPCR135 = assay: as above; settings: COS-7 cells transfected with rat GPCR135 (long and short form); competitor 1 μM unlabeled relaxin3
Experimental: as §1, §2

GPCR135 [3] = target: T1, GPCR135; settings: transient expression in Cos-1 cells; cited from earlier work
GPCR135 [4] = target: T1, GPCR135; assay: GTPγS binding assay with GPCR135 expressing cell membranes; assay type: biochemical; set-up: primers complementary to the putative translation start and stop sites of the GPCR135 open reading frame; expressed in transfected cells; host or cells: CHO-K1 (transient, pCIneo vector); isolated cell membranes; settings: GPCR135 expressing cell membrane
Experimental: Frozen rat brains (5 g) were homogenized at −30° C. in 40 ml ethanol/HCl (ethanol to 0.8M HCl ratio at 3:1). The homogenate was extracted at 4° C. for 2 hr and then centrifuged at 4° C. at 20,000 g for 30 min. The supernatant was loaded onto a 2 ml SP-Sephadex C-25 column (Amersham), washed with 1 M acetic acid and eluted with 2 M pyridine and 1 M acetic acid. The eluted fraction was loaded onto a 6 ml C-18 BondElut column, washed with 0.1% TFA and eluted with 60% acetonitrile and 0.1% TFA. The eluted peptides were lyophilized, reconstituted in water, and tested for GPCR135 ligand activity using GTPγS binding assay as described in Example 5.
The expression vector was transfected into COS-7 cells using LipofectAmine (Invitrogen). Three days after the transfection, the supernatants of the transfected cells were collected, the pH was adjusted to 3.0 and loaded onto a Sephadex C-25 cation exchange column. The column was washed with 1 M acetic acid and eluted with 2 M pyridine and 1 M acetic acid. The eluted proteins were loaded on a C-18 BondElut column, washed with 0.1% TFA, and eluted with 60% acetonitrile and 0.1% TFA. […]
GPCR135 expression vector was transfected into CHO-K1 cells using Lipofectamine (Invitrogen). […] Microscint-40 (Packard) was added to each well and the plate was counted on a top counter (TopCount NTX, Packard).

GPCR135 [5] = target: T1, GPCR135; assay: Ca2+ mobilization assay (FLIPR) in HEK293 cells co-expressing GPCR135 and Gqi5; assay type: cell-based; set-up: primers complementary to the putative translation start and stop sites of the GPCR135 open reading frame; expressed in transfected cells; host or cells: HEK293 (ATCC CRL-1573), transient co-transfection with Gqi5
Experimental: Using LipofectAmine, human embryonic kidney (HEK) 293 cells were co-transfected with a plasmid expressing GPCR135 receptor and a plasmid expressing Gqi5, a mutant G-protein that translates the activation of GPCR135 into an increased intracellular Ca^2+, or increased Ca^2+ mobilization (Conklin et al., 1993, Nature 363: 274-276). Two days after transfection, cells were detached with PBS plus 10 mM EDTA, pH 8.0. The detached cells were washed with DMEM-F12 medium (without phenol red, Invitrogen) and seeded in black poly-D lysine coated 96-well plates at a cell density of 50,000 cell/well. Calcium dye, Fluo-3 (AM) (TEFLABS, Austin, Tex.) was loaded into the cells and ligand stimulated calcium mobilization was monitored using FLIPR (Molecular Device).
HEK293 cells, untransfected (293 Control) or transfected by Gqi5 (293/Gqi5) alone or human GPCR135 (GPCR135) alone, or co-transfected by human GPCR135 and Gqi5 (GPCR135/Gqi5), were used for Ca^2+ mobilization assays under stimulation of relaxin3 as the ligand. Ligand-stimulated intracellular mobilization was monitored using FLIPR.

LGR7 = target: T3, LGR7 (Homo sapiens, UniProt Q9HBX9); settings: cited from earlier work
T3 sequence (Q9HBX9 1-757): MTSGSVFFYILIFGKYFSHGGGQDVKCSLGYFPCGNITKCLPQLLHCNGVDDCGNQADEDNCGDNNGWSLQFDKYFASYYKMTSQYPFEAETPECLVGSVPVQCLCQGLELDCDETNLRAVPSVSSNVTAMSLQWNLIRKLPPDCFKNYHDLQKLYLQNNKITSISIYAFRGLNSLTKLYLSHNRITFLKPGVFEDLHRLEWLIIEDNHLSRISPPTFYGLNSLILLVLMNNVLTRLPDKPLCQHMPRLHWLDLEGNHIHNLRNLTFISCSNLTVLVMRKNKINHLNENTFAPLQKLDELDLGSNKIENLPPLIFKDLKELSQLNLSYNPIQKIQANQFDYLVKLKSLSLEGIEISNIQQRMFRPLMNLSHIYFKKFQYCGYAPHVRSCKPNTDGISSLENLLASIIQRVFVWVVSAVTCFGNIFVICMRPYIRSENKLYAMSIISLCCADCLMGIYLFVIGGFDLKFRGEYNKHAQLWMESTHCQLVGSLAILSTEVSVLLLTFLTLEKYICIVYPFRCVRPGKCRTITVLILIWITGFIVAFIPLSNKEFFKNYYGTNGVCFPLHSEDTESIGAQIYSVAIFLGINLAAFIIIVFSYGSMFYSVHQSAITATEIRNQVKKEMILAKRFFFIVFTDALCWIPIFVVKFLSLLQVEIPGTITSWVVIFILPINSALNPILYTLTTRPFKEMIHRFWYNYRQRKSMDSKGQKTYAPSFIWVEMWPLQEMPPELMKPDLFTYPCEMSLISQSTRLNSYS

rat GPCR135, sequence (as listed by the source): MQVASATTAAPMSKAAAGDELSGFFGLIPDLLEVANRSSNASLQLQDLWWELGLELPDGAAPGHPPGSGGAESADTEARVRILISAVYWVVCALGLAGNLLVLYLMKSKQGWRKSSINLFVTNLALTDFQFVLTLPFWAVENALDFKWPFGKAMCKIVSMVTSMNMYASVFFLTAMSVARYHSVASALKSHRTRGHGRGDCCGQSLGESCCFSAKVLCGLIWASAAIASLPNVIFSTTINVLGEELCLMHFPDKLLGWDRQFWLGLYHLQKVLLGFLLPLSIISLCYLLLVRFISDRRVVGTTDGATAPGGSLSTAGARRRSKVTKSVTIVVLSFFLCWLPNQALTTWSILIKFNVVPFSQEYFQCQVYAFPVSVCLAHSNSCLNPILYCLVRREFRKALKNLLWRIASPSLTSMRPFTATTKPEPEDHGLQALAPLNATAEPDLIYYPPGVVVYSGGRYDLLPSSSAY

intracellular concentration of cAMP (GPCR135 [1]; in the absence of GPCR135): increases | intracellular concentration of cAMP (GPCR135 [1]; in the presence of GPCR135): increases
Molecule: C=C[C@@]1(C)CC(=O)[C@]2(O)[C@@]3(C)[C@@H](O)CCC(C)(C)[C@@H]3[C@H](O)[C@H](OC(C)=O)[C@@]2(C)O1 [forskalin, reference compound]

Molecule: ^125I-relaxin3: human relaxin3 labeled with iodine-125, used as radioligand
specific binding to GPCR135 (GPCR135 [2]): specifically binds | specific binding to GPCR135 (mouse GPCR135): specifically binds | specific binding to GPCR135 (rat GPCR135): specifically binds

Molecule: angiotensin II (DRVYIHPF; Angiotensin-2; UniProt P01019 25-32, looked up)
binding sites on GPCR135 (GPCR135 [3]): did not produce any binding sites

Molecule: relaxin3: secreted protein consisting of relaxin3 polypeptide chains A and B linked by disulfide bridges; recombinant human, natural ligand of GPCR135
stimulation of GTPγS binding (GPCR135 [4]): potently stimulated | forskalin-stimulated cAMP accumulation (GPCR135 [1]; cells expressing GPCR135): inhibits | intracellular concentration of cAMP (GPCR135 [1]; in the presence of GPCR135): decreases | Ca2+ mobilization (GPCR135 [5]): stimulates | activation of LGR7 (LGR7): activates
